Where “and” joins values, the source holds several entries; their conditions need not be identical. Equal values may be shown once. Read-outs that look alike come from different tables or passages of the source.
T1: N-hCD73-his (human, UniProt P21589 26-336, limits assumed)
T1 construct: monomeric in solution by SEC-MALS; also called N-terminal domain of hCD73
T1 sequence (looked up): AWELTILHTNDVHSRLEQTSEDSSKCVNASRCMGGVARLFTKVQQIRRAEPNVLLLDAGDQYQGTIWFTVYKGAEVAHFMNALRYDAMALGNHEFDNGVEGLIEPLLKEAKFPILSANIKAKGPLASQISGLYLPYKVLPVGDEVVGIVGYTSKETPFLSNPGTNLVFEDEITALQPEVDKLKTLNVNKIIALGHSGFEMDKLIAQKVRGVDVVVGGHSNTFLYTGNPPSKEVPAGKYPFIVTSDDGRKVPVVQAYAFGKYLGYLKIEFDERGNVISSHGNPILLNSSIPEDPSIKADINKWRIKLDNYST

T2: human CD73 on cells (human, UniProt P21589 27-549)
T2 sequence (looked up): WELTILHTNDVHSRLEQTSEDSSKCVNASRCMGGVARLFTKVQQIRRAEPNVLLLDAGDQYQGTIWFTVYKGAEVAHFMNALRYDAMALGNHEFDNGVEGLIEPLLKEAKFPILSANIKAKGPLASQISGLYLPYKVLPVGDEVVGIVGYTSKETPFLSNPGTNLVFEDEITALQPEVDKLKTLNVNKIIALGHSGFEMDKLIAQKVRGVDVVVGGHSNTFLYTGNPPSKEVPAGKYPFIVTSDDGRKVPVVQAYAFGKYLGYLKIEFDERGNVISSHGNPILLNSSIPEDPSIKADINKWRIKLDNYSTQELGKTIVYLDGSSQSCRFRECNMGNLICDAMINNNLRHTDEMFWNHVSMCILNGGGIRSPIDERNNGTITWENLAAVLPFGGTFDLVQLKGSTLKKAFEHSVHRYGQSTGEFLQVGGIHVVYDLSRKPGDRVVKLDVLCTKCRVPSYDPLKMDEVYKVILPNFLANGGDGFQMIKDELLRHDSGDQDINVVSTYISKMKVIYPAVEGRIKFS

T3: hCD73-his (human, UniProt P21589 26-546)
T3 construct: range 26-546; also called full length extracellular domain of human-CD73
T3 sequence (looked up): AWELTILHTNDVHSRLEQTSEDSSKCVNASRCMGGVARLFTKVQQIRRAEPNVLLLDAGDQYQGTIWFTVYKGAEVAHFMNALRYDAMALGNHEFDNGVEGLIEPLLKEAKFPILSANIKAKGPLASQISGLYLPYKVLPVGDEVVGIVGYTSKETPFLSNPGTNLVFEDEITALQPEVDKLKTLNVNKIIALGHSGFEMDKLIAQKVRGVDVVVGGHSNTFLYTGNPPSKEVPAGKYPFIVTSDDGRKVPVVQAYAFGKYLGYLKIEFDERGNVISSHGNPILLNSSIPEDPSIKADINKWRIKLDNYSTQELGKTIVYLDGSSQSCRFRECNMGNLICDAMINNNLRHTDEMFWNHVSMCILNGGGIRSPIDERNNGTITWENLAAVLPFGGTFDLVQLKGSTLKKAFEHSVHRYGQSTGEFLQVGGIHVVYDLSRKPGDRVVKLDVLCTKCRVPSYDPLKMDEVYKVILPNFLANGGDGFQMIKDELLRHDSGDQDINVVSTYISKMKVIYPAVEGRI


Tests used:
[1] = molecular target: T1, N-hCD73-his; assay: SPR, mAb captured on protein A
Protocol: The affinity of the antibodies for human CD73 was measured to determine whether the change of the constant region affects them. The affinities were determined by Surface Plasmon Resonance (SPR) as follows. […] For these experiments, protein A (Pierce) was immobilized to a density of 3000-4000 RU on flow cells 1˜4 of a CMS sensor chip (GE Healthcare) using standard ethyl(dimethylaminopropyl) carbodiimide (EDC)/N-hydroxysuccinimide (NHS) chemistry, with ethanolamine blocking, in a running buffer of 0.01 M HEPES pH 7.4, 0.15 M NaCl, 3 mM EDTA, 0.005% v/v tween 20. […] The running buffer for the kinetic experiments was 10 mM sodium phosphate, 130 mM sodium chloride, 0.05% tween 20, pH 7.1. The surfaces were regenerated after each cycle using two 30 s pulses of 10 mM glycine pH 1.5 at a flow rate of 30 μl/min. Sensogram data was double-referenced and then fitted to a 1:1 Langmuir model using Biacore® T100 evaluation software v2.0.4, to determine the association rate constant (ka), the dissociation rate constant (kd), and the equilibrium dissociation constant (KD).

[2] = molecular target: T2, human CD73 on cells; assay: cell-based or functional assay
[3] = molecular target: T2, human CD73 on cells; assay: cell-based or functional assay; remark: listed apart in the source
[4] = molecular target: T3, hCD73-his; assay: DLS, target:mAb 1:1, 2.5 uM + 2.5 uM; unit from the text
Protocol: (§1) The structure and oligomeric state of CD73/antibody complexes in solution were examined by SEC-MALS and DLS.
Dynamic light scattering (DLS) studies were performed on a Wyatt DynaPro® plate reader in 384 well plates at 25° C. Experimental parameters were 20 acquisitions of 5 s each per measurement, and measurements were recorded in quadruplicate, with the average and standard deviation reported. Intensity autocorrelation functions were fitted using the “Regularization” algorithm in the Dynamics® software (Wyatt Technologies®).

[5] = molecular target: T3, hCD73-his; assay: SEC-MALS, target:mAb 1:1, 2.5 uM + 2.5 uM
Protocol: as §1
The oligomeric state of CD73/antibody complexes were examined by size-exclusion chromatography coupled to an in-line multi-angle light scattering detector (SEC-MALS). Isocratic separations were performed on a Shodex PROTEIN KW-803 column connected to an Prominence Shimadzu UFLC in buffer containing 200 mM K₂HPO₄, 150 mM NaCl, pH 6.8, containing 0.02% Na azide (0.1 μm filtered) running at 0.5 mL/min. Samples were injected onto the column using a SIL-20AC Prominence Shimadzu® autosampler, and data were obtained from three online detectors connected in series: a Prominence SPD-20AD diode array UV/vis spectrophotometer followed by a Wyatt miniDAWN™ TREOS Multi-Angle Light Scattering Detector then a Wyatt Optilab T-rEX Refractive Index Detector® instrument. Data were collected and analyzed using Astra® (Wyatt) and Labsolutions® (Shimadzu) software.

[6] = molecular target: T2, human CD73 on cells; assay: cell-based or functional assay; remark: listed apart in the source

| Binder | Kd [1] | koff [1] | kon [1] | internalization EC50, Calu6 cells, 2 h [2] | internalization Ymax (% of 100 nM 11F11), Calu6 cells [2] | internalization T1/2, Calu6 [3] | internalization T1/2, NCI-H292 [3] | internalization Ymax, Calu6 [3] | internalization Ymax, NCI-H292 [3] | Rh [4] | MW Peak 1 [5] | MW Peak 2 [5] | MW Peak 3 [5] | internalization T1/2, Calu6 [6] | internalization T1/2, NCI-H292 [6] | internalization Ymax, Calu6 [6] | internalization Ymax, NCI-H292 [6] |
| --- | --- | --- | --- | --- | --- | --- | --- | --- | --- | --- | --- | --- | --- | --- | --- | --- | --- |
| 11F11 (antibody, human IgG2, kappa, V domains shown, hybridoma derived anti-CD73 antibody, IgG2 constant region; also called 11F11 (IgG2)) VH: QVQLVESGGGVVQPGRSLRLSCATSGFTFSNYGMHWVRQAPGKGLEWVAVILYDGSNKYYPDSVKGRFTISRDNSKNTLYLQMNSLRAEDTAVYYCARGGSSWYPDSFDIWGQGTMVTVSS VL: DIQMTQSPSSLSASVGDRVTITCRASQGISSWLAWYQQKPEKAPKSLIYAASSLQSGVPSRFSGSGSGTDFTLTISSLQPEDFATYYCQQYNSYPLTFGGGTKVEIKR | 1.6 nM and 0.56 nM | 0.00042 s⁻¹ and 0.00016 s⁻¹ | 260000 M⁻¹ s⁻¹ and 290000 M⁻¹ s⁻¹ | 0.58 nM | 98% | – | – | – | – | – | – | – | – | – | – | – | – |
| CD73.4-IgG2-C219S-IgG1.1f (antibody, also called CD73.4-IgG2.3G1.1f-KH; CD73.4-IgG2CS-IgG1.1f) heavy: QVQLVESGGGVVQPGRSLRLSCAASGFTFSNYGMHWVRQAPGKGLEWVAVILYDGSNKYYPDSVKGRFTISRDNSKNTLYLQMNSLRAEDTAVYYCARGGSSWYPDSFDIWGQGTMVTVSSASTKGPSVFPLAPCSRSTSESTAALGCLVKDYFPEPVTVSWNSGALTSGVHTFPAVLQSSGLYSLSSVVTVPSSNFGTQTYTCNVDHKPSNTKVDKTVERKSCVECPPCPAPPVAGPSVFLFPPKPKDTLMISRTPEVTCVVVDVSHEDPEVKFNWYVDGVEVHNAKTKPREEQYNSTYRVVSVLTVLHQDWLNGKEYKCKVSNKALPSSIEKTISKAKGQPREPQVYTLPPSREEMTKNQVSLTCLVKGFYPSDIAVEWESNGQPENNYKTTPPVLDSDGSFFLYSKLTVDKSRWQQGNVFSCSVMHEALHNHYTQKSLSLSPGK light: not shown | – | – | – | – | – | 34 min | 15.8 min | 76.8% | 77.6% | 31.2 nm | 3600 kDa | 1100 kDa | 580 kDa | 21 min | 16.6 min | 81% | 90.3% |

From patent publication US20240141059A1 (Bristol-Myers Squibb, published 2024)
